Source: publication PMC3142617 (Cell host & microbe, 2011)

Experiments:
[1] = biological target: the molecule itself; experiment: SEC-MALS
[2] = biological target: the molecule itself; experiment: AUC

B1: L6TIR (L6 TIR domain, residues 29-229) (domain or fragment, flax (Linum usitatissimum))
chain: SNAKDSIVNDDDDSTSEVDAISDSTNPSGSFPSVEYEVFLSFRGPDTREQFTDFLYQSLRRYKIHTFRDDDELLKGKEIGPNLLRAIDQSKIYVPIISSGYADSKWCLMELAEIVRRQEEDPRRIILPIFYMVDPSDVRHQTGCYKKAFRKHANKFDGQTIQNWKDALKKVGDLKGWHIGKNDKQGAIADKVSADIWSHISKEN
[1]
  stoichiometry N: ~2
[2]
  Kd: 20.3 µM
  stoichiometry N: 2
